The target in test [1] is His-tagged PP1 (protein phosphatase 1, catalytic subunit). As to the kind of experiment: plate binding curve: MYPT1 1-299 on His-PP1 on nickel wells, streptavidin-Alexa Fluor 488.
The target is the same in test [2]. The test is described as above. This is another data set of the same source.
Test [3] shares this target. As to the kind of experiment: plate binding curve: biotinylated peptide on His-PP1 on nickel wells, streptavidin-Alexa Fluor 488.
Test [4] has the same target. As to the kind of experiment: competition plate assay: MYPT1 1-299 binding to His-PP1 with increasing PIP250; competitor MYPT1 1-299.

For amino acids 1-299 of MYPT1, the values for the Kd in test [1] and in test [2] were 0.05 µM and 0.049 µM, respectively.
In test [3], PIP252 (H-rrfkaktkkrk-NH2) (peptide) showed a Kd of 724 µM.
Substance PIP250 (H-rrfkvktkkrk-NH2) (peptide) had a Kd in test [3] of 610 µM. In test [4], this substance displayed a Ki of 155 µM.
As for PIP251 (H-rrakvktkkrk-NH2) (peptide), the Kd in test [3] was determined as 1280 µM. This counts as millimolar.

Source of the values: patent US20230234987A1.
